The target of experiment [1] is human liver cathepsin L (human). In words: enzyme inhibition assay (Ki from substrate hydrolysis progress curves); human cathepsin L activity in 400 mM sodium acetate buffer (pH 5.5), 40 µM Z-FR-AMC, 25°C, with or without NtCYS, reducing conditions.
The target in experiment [2] is papain (from papaya latex) (papaya) (UniProt P00784). Description: enzyme inhibition assay (Ki from substrate hydrolysis progress curves); papain activity in 50 mM phosphate buffer (pH 6.0), 40 µM Z-FR-AMC, 37°C, with or without NtCYS, reducing conditions.
Experiment [3] addresses recombinant NtCP14 (N. tabacum). In words: enzyme inhibition assay (Ki(app) = [I0]/(V0/Vi-1)); apparent; recombinant NtCP14 activated in 100 mM sodium acetate (pH 4.0); hydrolysis of 40 µM Bz-FVR-AMC at 30°C, pH 6.0, reducing conditions, NtCYS varied.

Sequence of papain (from papaya latex) (papaya) (P00784 134-345): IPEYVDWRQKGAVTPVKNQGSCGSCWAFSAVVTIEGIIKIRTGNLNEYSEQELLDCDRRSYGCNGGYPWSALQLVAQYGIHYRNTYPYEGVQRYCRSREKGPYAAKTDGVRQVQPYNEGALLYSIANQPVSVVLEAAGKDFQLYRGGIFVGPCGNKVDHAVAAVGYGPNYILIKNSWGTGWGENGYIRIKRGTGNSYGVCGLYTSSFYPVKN
Sequence of recombinant NtCP14 (N. tabacum) (main, as listed by the source): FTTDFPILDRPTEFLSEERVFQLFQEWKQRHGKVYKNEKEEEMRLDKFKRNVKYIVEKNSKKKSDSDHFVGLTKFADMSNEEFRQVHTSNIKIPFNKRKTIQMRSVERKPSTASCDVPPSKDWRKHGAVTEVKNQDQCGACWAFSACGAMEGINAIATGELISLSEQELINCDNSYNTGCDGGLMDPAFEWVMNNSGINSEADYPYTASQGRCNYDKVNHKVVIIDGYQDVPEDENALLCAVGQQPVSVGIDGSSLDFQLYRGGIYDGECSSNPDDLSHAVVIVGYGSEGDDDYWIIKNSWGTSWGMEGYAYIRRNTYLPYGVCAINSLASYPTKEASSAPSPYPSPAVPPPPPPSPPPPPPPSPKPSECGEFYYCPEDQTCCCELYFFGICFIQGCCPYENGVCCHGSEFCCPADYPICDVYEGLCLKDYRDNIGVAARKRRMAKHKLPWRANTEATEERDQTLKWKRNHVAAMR

For recombinant NtCYS (natural protein), the Ki in experiment [1] is 0.39 nM; in experiment [2] it was 64.5 nM; in experiment [3], 740 nM.

Values taken from publication PMC3769231.
